The source of these data is patent US12466878 (dated 2025).

For orientation: Kd means a measure of binding affinity in units of concentration.

In this assay the target is HLA-A*02:01 (human;). The assay is described as follows: ELISA.

B1: IGF2BP3-001 peptide KIQEILTQV (SEQ ID NO: 1) (peptide)
peptide: KIQEILTQV
B1 showed a Kd of 0.874 nM.
